Test results taken from article PMC12090727.

These substances were tested against HA-hFc probe: H1N1 A/California/04/2009 HA ectodomain fused to human IgG1 Fc (assay: flow cytometry on cells). Settings: parent: est. 1.0; read off a plot.

| Substance | ratio to parent |
| --- | --- |
| Flag-tagged fTfR-5J8 receptor, WT (Flag+) (from UniProt Q9MYZ3) D100bL | 0.28 |
| Flag-tagged fTfR-5J8 receptor, WT (Flag+) (from UniProt Q9MYZ3) N32A | 0.94 |
| Flag-tagged fTfR-5J8 receptor, WT (Flag+) (from UniProt Q9MYZ3) I93A | 0.98 |
| Flag-tagged fTfR-5J8 receptor, WT (Flag+) (from UniProt Q9MYZ3) I93D | 0.97 |
| Flag-tagged fTfR-5J8 receptor, WT (Flag+) (from UniProt Q9MYZ3) R97H | 0.84 |
| Flag-tagged fTfR-5J8 receptor, WT (Flag+) (from UniProt Q9MYZ3) R97A; P100aA; I93A | 0.42 |
